One assay has as its target RET (Homo sapiens) (UniProt P07949). Conditions: cited from earlier work.
For assay [1], the target named is T1, ectodomain of RET protein (ecRET; R&D Systems, catalog no. 1168-CR-050/CF) (UniProt P07949 29-635).
T1 construct: Rearranged during transformation (RET) receptor tyrosine kinase, ectodomain; also called RET receptor; extracellular part of RET; source: bought: R&D Systems (catalog no. 1168-CR-050/CF)
As to the kind of experiment: SPR; Biacore; ecRET amine-coupled to a CM5 chip at 4000 RU; GAS1 series 2-32 uM injected at 20 ul/min for 2 min; 10 mM Hepes pH 7.4, 150 mM NaCl, 1 mM CaCl2, 0.01% Triton X-100; Kd from equilibrium responses (Req), two independent experiments. Conditions: both partners purified.

Chain of RET (Homo sapiens) (P07949 29-635): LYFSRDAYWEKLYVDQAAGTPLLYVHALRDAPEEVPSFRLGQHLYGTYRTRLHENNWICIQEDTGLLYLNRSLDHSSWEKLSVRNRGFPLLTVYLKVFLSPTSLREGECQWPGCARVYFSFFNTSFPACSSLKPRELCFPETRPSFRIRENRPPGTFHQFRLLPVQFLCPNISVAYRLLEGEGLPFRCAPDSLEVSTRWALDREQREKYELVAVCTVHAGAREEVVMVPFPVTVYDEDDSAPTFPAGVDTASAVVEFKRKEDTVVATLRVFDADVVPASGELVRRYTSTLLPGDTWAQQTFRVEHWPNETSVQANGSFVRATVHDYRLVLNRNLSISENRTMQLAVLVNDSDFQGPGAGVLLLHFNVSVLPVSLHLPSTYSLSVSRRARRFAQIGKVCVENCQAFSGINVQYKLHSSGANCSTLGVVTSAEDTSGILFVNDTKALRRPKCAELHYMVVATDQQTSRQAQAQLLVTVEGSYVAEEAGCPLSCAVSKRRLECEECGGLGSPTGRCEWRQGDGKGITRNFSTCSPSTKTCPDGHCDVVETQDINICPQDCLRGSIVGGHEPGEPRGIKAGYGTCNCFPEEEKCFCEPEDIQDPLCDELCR
T1 sequence (P07949 29-635): as above

The term Kd denotes the free concentration of one partner at which half of the binding sites on the other are occupied at equilibrium, for simple one-to-one binding. As to GFRα1-GDNF (from UniProt P56159), in the assay with RET (Homo sapiens), the dissociation constant Kd is 0.0002 µM.

B1: human growth arrest specific-1 (GAS1), soluble form without the GPI-anchor, amino acids 39-317 (domain or fragment, UniProt P54826 39-317, looked up)
chain: GLAHGRRLICWQALLQCQGEPECSYAYNQYAEACAPVLAQHGGGDAPGAAAAAFPASAASFSSRWRCPSHCISALIQLNHTRRGPALEDCDCAQDENCKSTKRAIEPCLPRTSGGGAGGPGAGGVMGCTEARRRCDRDSRCNLALSRYLTYCGKVFNGLRCTDECRTVIEDMLAMPKAALLNDCVCDGLERPICESVKENMARLCFGAELGNGPGSSGSDGGLDDYYDEDYDDEQRTGGAGGEQPLDDDDGVPHPPRPGSGAAASGGRGDLPYGPGRRS
modifications: glycosylated: approximately one N-glycan added in the insect cells (N-glycosylation site predicted at Asn117)
notes: secreted with the honey bee mellitin signal of the vector pK509.3; after thrombin cleavage Gly-Ser of the site probably remains at the N-terminus (surmise); Theoretical mass without glycan printed as 29.0 kDa; also called recombinant human GAS1; not shown: FLAG, N-terminal, cleaved; His6, N-terminal, cleaved
For the molecule B1, the Kd in assay [1] was determined as 12.2 µM.
